Test results: patent publication US20020062009A1 (GlaxoSmithKline, published 2002)

What was measured:
[1] = target: T1, purified human alpha v beta 3 integrin (biotinylated) (human, UniProt P06756 31-1048; P05106 27-788, limits assumed); assay: ORIGEN electrochemiluminescence; antibody dilutions with biotinylated purified integrin, captured on streptavidin beads
T1 construct: also called αvβ3; human integrin αvβ3
Protocol: The relative binding avidity of CPB9 was compared to that of the original murine B9 antibody as follows. CPB9 antibodies present in culture supernatants from cells maintained in culture for 5 days after transfection with the expression constructs were compared to the parental murine B9 antibody using the ORIGEN technology (IGEN Inc, Gaithersburg, Md.). Briefly, different dilutions of the B9 variants were incubated with purified human αvβ3 integrin which had previously been biotinylated, and an electrochemiluminescent TAG moiety specific for the antibody C regions. B9 variant antibody bound to the integrin was measured by capturing the immune complexes onto streptavidin beads followed by analysis on the ORIGEN instrument.

[2] = target: T2, human erythropoietin receptor (EPOr), recombinant entire extracellular domain (human, UniProt P19235 25-250); assay: BIAcore 1000 SPR
T2 construct: extracellular domain; also called human EPOr; monomeric EPOr
T2 sequence (looked up): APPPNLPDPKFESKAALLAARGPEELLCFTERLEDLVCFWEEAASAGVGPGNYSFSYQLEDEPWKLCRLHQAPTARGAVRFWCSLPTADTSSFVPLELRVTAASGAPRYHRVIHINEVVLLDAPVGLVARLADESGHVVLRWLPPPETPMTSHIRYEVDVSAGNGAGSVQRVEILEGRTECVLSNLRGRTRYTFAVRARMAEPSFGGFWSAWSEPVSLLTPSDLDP
Protocol: (§1) A BIAcore analysis (Pharmacia) was performed to determine the binding affinity for human EPOr of murine 3G9 and CP3G9. The interaction of CP3G9 as well as murine 3G9 with EPOr was characterized using a BIAcore 1000 biosensor. Descriptions of the instrumentation and the sensor surfaces are described in Brigham-Burke et al., Anal. Biochem., 205:125-131 (1992).
(§2) CP3G9 was captured onto a sensor surface of immobilized protein A. The kinetic binding constants were determined by passing solutions of monomeric EPOr over the surface and monitoring binding versus time. The equilibrium dissociation constant for the interaction was then derived from the ratio of the kinetic constants. The parent murine 3G9 was captured onto a surface of protein A captured rabbit anti-mouse Fc specific polyclonal antibody. The kinetics and dissociation constant for the interaction with EPOr was determined as described above. All measurements were made in 10 mM sodium phosphate, 150 mM NaCl pH 7.23 mM EDTA and 0.005% Tween 20. The flow rate was 60 uL/min. The temperature was 20° C.

[3] = target: T2, human erythropoietin receptor (EPOr), …; assay: BIAcore 1000 SPR; antibody captured on immobilized protein A, monomeric EPOr in solution, 20 C; KD from ratio of kinetic constants
Protocol: as §1, §2

[4] = target: T2, human erythropoietin receptor (EPOr), …; assay: BIAcore 1000 SPR; antibody captured on immobilized protein A, monomeric EPOr in solution, 20 C (exponent as printed; kon and KD imply 10^-3)
Protocol: as §1, §2

[5] = target: T2, human erythropoietin receptor (EPOr), …; assay: BIAcore 1000 SPR; antibody captured on immobilized protein A, monomeric EPOr in solution, 20 C
Protocol: as §1, §2

[6] = target: T2, human erythropoietin receptor (EPOr), …; assay: BIAcore 1000 SPR; antibody captured by protein A-bound rabbit anti-mouse Fc, monomeric EPOr in solution, 20 C (exponent as printed; kon and KD imply 10^-3)
Protocol: as §1, §2

[7] = target: T2, human erythropoietin receptor (EPOr), …; assay: BIAcore 1000 SPR; antibody captured by protein A-bound rabbit anti-mouse Fc, monomeric EPOr in solution, 20 C
Protocol: as §1, §2

[8] = target: T2, human erythropoietin receptor (EPOr), …; assay: BIAcore 1000 SPR; antibody captured by protein A-bound rabbit anti-mouse Fc, monomeric EPOr in solution, 20 C; KD from ratio of kinetic constants
Protocol: as §1, §2

T1 sequence (P06756 31-1048 limits assumed, form in doubt, chain 1 of 2): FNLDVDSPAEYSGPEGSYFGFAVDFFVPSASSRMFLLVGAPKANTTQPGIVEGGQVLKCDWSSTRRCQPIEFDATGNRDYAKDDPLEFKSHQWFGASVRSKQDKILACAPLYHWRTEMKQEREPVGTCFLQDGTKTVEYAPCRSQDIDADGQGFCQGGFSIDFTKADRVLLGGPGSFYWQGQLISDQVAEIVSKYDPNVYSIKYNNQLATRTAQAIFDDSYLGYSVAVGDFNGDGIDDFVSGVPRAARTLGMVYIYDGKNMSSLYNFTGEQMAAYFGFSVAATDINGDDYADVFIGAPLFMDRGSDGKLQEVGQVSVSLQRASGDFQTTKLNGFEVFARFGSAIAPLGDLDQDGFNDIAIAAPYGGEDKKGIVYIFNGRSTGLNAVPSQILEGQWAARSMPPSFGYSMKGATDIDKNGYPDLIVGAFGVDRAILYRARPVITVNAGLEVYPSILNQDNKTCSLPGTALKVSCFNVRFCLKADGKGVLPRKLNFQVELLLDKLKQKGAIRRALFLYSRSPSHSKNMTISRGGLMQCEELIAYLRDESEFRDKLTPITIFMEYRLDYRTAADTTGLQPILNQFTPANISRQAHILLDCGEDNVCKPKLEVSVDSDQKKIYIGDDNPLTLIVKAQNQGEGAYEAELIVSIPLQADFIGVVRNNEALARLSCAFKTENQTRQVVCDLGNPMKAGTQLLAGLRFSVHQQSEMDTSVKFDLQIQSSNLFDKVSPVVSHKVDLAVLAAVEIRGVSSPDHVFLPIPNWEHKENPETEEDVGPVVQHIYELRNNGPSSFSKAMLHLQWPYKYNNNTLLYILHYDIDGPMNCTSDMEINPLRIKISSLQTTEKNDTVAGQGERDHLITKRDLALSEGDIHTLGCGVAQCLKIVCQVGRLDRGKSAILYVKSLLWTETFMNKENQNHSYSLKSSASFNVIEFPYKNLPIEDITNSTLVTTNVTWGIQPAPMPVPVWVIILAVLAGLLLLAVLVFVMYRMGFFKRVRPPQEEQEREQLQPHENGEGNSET
T1 sequence (P05106 27-788 limits assumed, form in doubt, chain 2 of 2): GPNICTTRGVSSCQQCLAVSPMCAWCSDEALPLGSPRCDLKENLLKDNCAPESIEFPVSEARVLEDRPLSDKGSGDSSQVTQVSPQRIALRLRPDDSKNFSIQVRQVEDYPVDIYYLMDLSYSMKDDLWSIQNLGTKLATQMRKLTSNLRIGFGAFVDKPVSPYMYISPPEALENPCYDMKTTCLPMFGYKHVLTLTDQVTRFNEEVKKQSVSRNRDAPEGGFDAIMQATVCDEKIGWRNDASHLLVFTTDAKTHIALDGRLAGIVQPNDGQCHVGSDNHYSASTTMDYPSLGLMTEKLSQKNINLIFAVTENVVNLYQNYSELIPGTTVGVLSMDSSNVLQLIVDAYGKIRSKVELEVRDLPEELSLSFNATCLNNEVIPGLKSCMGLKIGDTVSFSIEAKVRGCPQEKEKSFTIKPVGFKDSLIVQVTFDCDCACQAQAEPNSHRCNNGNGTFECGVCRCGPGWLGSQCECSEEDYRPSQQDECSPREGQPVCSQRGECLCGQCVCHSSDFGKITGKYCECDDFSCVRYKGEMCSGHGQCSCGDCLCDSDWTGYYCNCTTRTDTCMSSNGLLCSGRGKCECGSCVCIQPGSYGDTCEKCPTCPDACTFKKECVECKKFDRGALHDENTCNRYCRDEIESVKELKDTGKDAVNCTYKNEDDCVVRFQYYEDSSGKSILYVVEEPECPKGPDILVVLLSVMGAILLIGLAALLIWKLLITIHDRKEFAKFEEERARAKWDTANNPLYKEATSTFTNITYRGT

B1: engineered B9 (CPB9), chimpanzee framework engineered anti-integrin antibody (antibody, IgG1, V domains shown)
VH: QVQLVQSGAEVKKPGSSVKVSCKASGYTFSSYWIEWVKQAPGQGLEWIGEILPRSGNTNYNEKFKGKASFNADTSTNIAYMELTSLRSEDTAVYYCSSRGVRGSMDYWGQGTLVTVSS
VL: DIQMTQSPSSLSASVGDRVTITCRSSQDISNFLNWYQQKPGKAPKLLIYYTSTLHSGVPSRFSGSGSGTDYTLTISSLQPEDFATYYCQQGNTLPWTFGGGTKVEIKR
notes: They were ligated into vectors with IgG1,kappa antibody constant regions and expressed in COS cells; Tested as culture supernatant
[1]
  fold displacement of binding curve against murine B9: ~3 fold

B2: engineered 3G9 (CP3G9), chimpanzee framework engineered anti-erythropoietin receptor antibody (antibody, IgG1, V domains shown)
VH: QVQLVQSGAEVKKPGSSVKVSCKASGSTFTSYWMHWVKQAPGQGLEWIGRIDPNSGGTKDNEKFKSKATLNVDKSTNIAYMELTSLRSEDTAVYYCARETYYDSSFAYWGQGTMVTVS
VL: DIVMTQSPSSLSASVGDRVTITCKASQNVGTNVAWYQQKPGKAPKALIYSASYRYSGVPDRFSGSGSGTDFTLTISSLQPEDFATYYCQQYNSYPLTFGGGTKVEIK
notes: They were ligated into vectors with IgG1,kappa antibody constant regions and expressed in COS cells; also called chimpanzee version of 3G9
[2]
  fold difference of KD against murine 3G9: ≤ 3 fold
[3]
  Kd: 9.1 nM
[4]
  koff: 0.0091 s⁻¹
[5]
  kon: 1e+06 M⁻¹ s⁻¹

B3: murine anti-erythropoietin receptor antibody 3G9 (antibody, V domains shown)
VH: QVQLQQPGAELVKSGASVKLSCKASGSTFTSYWMHWVKQRPGRGLEWIGRIDPNSGGTKDNEKFKSKATLTVDKPSSTAYMQLSSLTSEDSAVYYCARETYYDSSFAYWGQGTLVTVSA
VL: DIVMTQSQKFMSTSVGDRVSVTCKASQNVGTNVAWYQQKPGQSPKALIYSASYRYSGVPDRFTGSGSGTDFTLTISNVQSEDLAEYFCQQYNSYPLTFGAGTKLELKR
notes: Murine monoclonal antibody; also called murine 3G9; parent murine 3G9
[6]
  koff: 0.004 s⁻¹
[7]
  kon: 1.2e+06 M⁻¹ s⁻¹
[8]
  Kd: 3.3 nM
